Laboratory results from patent US9555076B2, “Neuregulin based methods and compositions for treating cardiovascular diseases” (Zensun (Shanghai) Science & Technology, Co., Ltd., priority 2002, dated 2017).
Several values for one entry are separate records, joined by “and”; a condition that tells them apart may be missing. Equal entries are not always repeated. Marks after values point to notes of the source that are not given here.

Test system: acute myocardial injury caused by viral (Coxsackie B3) infection in mice
Test: Survival of mice infected with Coxsackie B3 virus
Assay type: in vivo, BALB/C mice
Details: for relative survival rate: mice
Method: 0.2 ml of 100×TCID50 CVB3 provided by Zhong Shan Hospital affiliated to Fudan University was injected intra-abdominally and established myocarditis model. Within the following week, the mouse manifested pilo-erection, depilation, emaciation, dullness and death, about half of the tested animals died at the 8th day.
Intravenous injection of the testing drug into the tail vein was carried out the same day of intra-abdominal viral infection in mice, the injection was performed for consecutive 5 days, animal survival rate was monitored, after completion of the experiment, echocardiograph, myocardial pathologic examination, serum troponin determination were carried out.
The death status of model animals in various testing drug group was monitored.
• Normal mice control group, model group and testing drug group were set up; • Normal mice control group (n=10); • Model group (n=20): Prepared buffer solution was injected; • Testing drug group (n=20): […] courses with 20 animals assigned for each group; • Placebo control group (n=20): Intra-abdominal injection of non-CVB3 freeze-thaw cellular supernatant, 0.2 ml/animal. 10.2 Dosage Set Up, Preparation of Testing Drug, Route of Drug Administration, Times of Drug Administration, Concentration and Volume of the Testing Drug • rhNRG-1β was diluted with preparation buffer solution (10 mM PB, 0.2% human serum albumin, 5% mannitol to needed concentration; • Three drug administration groups were set up, intravenous injection for consecutive 3-day, 5-day and 7-day, drug volume for each dose was 0.2 ml/animal; • Drug administration of the model group was intravenous injection into the tail vein of mice, once every day (qd), for consecutive 7 days, drug volume for each dose was 0.2 ml/animal. 7.3 Method of the Experiment 7.3.1 Set Up of Acute Viral Myocariditis Animal Model in Mice

B1: rhNRG-1 β: Recombinant human neuregulin fragment of 61 amino acid (SEQ ID NO:4), 3 disulfide bonds, expressed in E. coli (protein, listed as Homo sapiens)
chain: SHLVKCAEKEKTFCVNGGECFMVKDLSNPSRYLCKCPNEFTGDRCQNYVMASFYKAEELYQ
modifications: disulfide (positions not given here)
Mice n = 20, 30 μg/kg iv qd × 7, 7th day, (II)
  Number of survival animals: 18
Mice n = 20, 30 μg/kg iv qd × 7, killed, (I)
  Number of survival animal: 17*
Mice n = 20, 30 μg/kg iv qd × 7, killed, (II)
  Number of survival animals: 18*
5 μg/kg (so in the source) iv qd × 5, 1st day, (I)
  relative survival rate: 100%
5 μg/kg (so in the source) iv qd × 5, 2nd day, (I)
  relative survival rate: 100%
5 μg/kg (so in the source) iv qd × 5, 3rd day, (I)
  relative survival rate: 100%
5 μg/kg (so in the source) iv qd × 5, 4th day, (I)
  relative survival rate: 95%
5 μg/kg (so in the source) iv qd × 5, 5th day, (I)
  relative survival rate: 90%
5 μg/kg (so in the source) iv qd × 5, 6th day, (I)
  relative survival rate: 75%
5 μg/kg (so in the source) iv qd × 5, 7th day, (I)
  relative survival rate: 65%
5 μg/kg (so in the source) iv qd × 5, killed, (I)
  relative survival rate: 50%
7.5 μg/kg iv qd × 5, 1st day, (II)
  relative survival rate: 100%
7.5 μg/kg iv qd × 5, 2nd day, (II)
  relative survival rate: 100%
7.5 μg/kg iv qd × 5, 3rd day, (II)
  relative survival rate: 100%
7.5 μg/kg iv qd × 5, 4th day, (II)
  relative survival rate: 90%
7.5 μg/kg iv qd × 5, 5th day, (II)
  relative survival rate: 85%
7.5 μg/kg iv qd × 5, 6th day, (II)
  relative survival rate: 70%
7.5 μg/kg iv qd × 5, 7th day, (II)
  relative survival rate: 55%
7.5 μg/kg iv qd × 5, killed, (II)
  relative survival rate: 50%
15 μg/kg iv qd × 5, 1st day, (I)
  relative survival rate: 100%
15 μg/kg iv qd × 5, 1st day, (II)
  relative survival rate: 100%
15 μg/kg iv qd × 5, 2nd day, (I)
  relative survival rate: 100%
15 μg/kg iv qd × 5, 2nd day, (II)
  relative survival rate: 100%
15 μg/kg iv qd × 5, 3rd day, (I)
  relative survival rate: 100%
15 μg/kg iv qd × 5, 3rd day, (II)
  relative survival rate: 100%
15 μg/kg iv qd × 5, 4th day, (I)
  relative survival rate: 100%
15 μg/kg iv qd × 5, 4th day, (II)
  relative survival rate: 95%
15 μg/kg iv qd × 5, 5th day, (I)
  relative survival rate: 95%
15 μg/kg iv qd × 5, 5th day, (II)
  relative survival rate: 90%
15 μg/kg iv qd × 5, 6th day, (I)
  relative survival rate: 85%
15 μg/kg iv qd × 5, 6th day, (II)
  relative survival rate: 80%
15 μg/kg iv qd × 5, 7th day, (I)
  relative survival rate: 70%
15 μg/kg iv qd × 5, 7th day, (II)
  relative survival rate: 65%
15 μg/kg iv qd × 5, killed, (I)
  relative survival rate: 65%
15 μg/kg iv qd × 5, killed, (II)
  relative survival rate: 65%
30 μg/kg iv qd × 3, 1st day, (I)
  relative survival rate: 100%
30 μg/kg iv qd × 3, 1st day, (II)
  relative survival rate: 100%
30 μg/kg iv qd × 3, 2nd day, (I)
  relative survival rate: 100%
30 μg/kg iv qd × 3, 2nd day, (II)
  relative survival rate: 100%
30 μg/kg iv qd × 3, 3rd day, (I)
  relative survival rate: 100%
30 μg/kg iv qd × 3, 3rd day, (II)
  relative survival rate: 100%
30 μg/kg iv qd × 3, 4th day, (I)
  relative survival rate: 95%
30 μg/kg iv qd × 3, 4th day, (II)
  relative survival rate: 100%
30 μg/kg iv qd × 3, 5th day, (I)
  relative survival rate: 90%
30 μg/kg iv qd × 3, 5th day, (II)
  relative survival rate: 95%
30 μg/kg iv qd × 3, 6th day, (I)
  relative survival rate: 80%
30 μg/kg iv qd × 3, 6th day, (II)
  relative survival rate: 80%
30 μg/kg iv qd × 3, 7th day, (I)
  relative survival rate: 70%
30 μg/kg iv qd × 3, 7th day, (II)
  relative survival rate: 75%
30 μg/kg iv qd × 3, killed, (I)
  relative survival rate: 65%
30 μg/kg iv qd × 3, killed, (II)
  relative survival rate: 75%
30 μg/kg iv qd × 5, 1st day, (I)
  relative survival rate: 100%
30 μg/kg iv qd × 5, 1st day, (II)
  relative survival rate: 100%
30 μg/kg iv qd × 5, 1st day, Example 5 (I)
  relative survival rate: 100%
30 μg/kg iv qd × 5, 1st day, Example 5 (II)
  relative survival rate: 100%
30 μg/kg iv qd × 5, 2nd day, (I)
  relative survival rate: 100%
30 μg/kg iv qd × 5, 2nd day, (II)
  relative survival rate: 100%
30 μg/kg iv qd × 5, 2nd day, Example 5 (I)
  relative survival rate: 100%
30 μg/kg iv qd × 5, 2nd day, Example 5 (II)
  relative survival rate: 100%
30 μg/kg iv qd × 5, 3rd day, (I)
  relative survival rate: 100%
30 μg/kg iv qd × 5, 3rd day, (II)
  relative survival rate: 100%
30 μg/kg iv qd × 5, 3rd day, Example 5 (I)
  relative survival rate: 100%
30 μg/kg iv qd × 5, 3rd day, Example 5 (II)
  relative survival rate: 100%
30 μg/kg iv qd × 5, 4th day, (I)
  relative survival rate: 100%
30 μg/kg iv qd × 5, 4th day, (II)
  relative survival rate: 100%
30 μg/kg iv qd × 5, 4th day, Example 5 (I)
  relative survival rate: 100%
30 μg/kg iv qd × 5, 4th day, Example 5 (II)
  relative survival rate: 100%
30 μg/kg iv qd × 5, 5th day, (I)
  relative survival rate: 100%
30 μg/kg iv qd × 5, 5th day, (II)
  relative survival rate: 95%
30 μg/kg iv qd × 5, 5th day, Example 5 (I)
  relative survival rate: 95%
30 μg/kg iv qd × 5, 5th day, Example 5 (II)
  relative survival rate: 95%
30 μg/kg iv qd × 5, 6th day, (I)
  relative survival rate: 90%
30 μg/kg iv qd × 5, 6th day, (II)
  relative survival rate: 90%
30 μg/kg iv qd × 5, 6th day, Example 5 (I)
  relative survival rate: 95%
30 μg/kg iv qd × 5, 6th day, Example 5 (II)
  relative survival rate: 95%
30 μg/kg iv qd × 5, 7th day, (I)
  relative survival rate: 85%
30 μg/kg iv qd × 5, 7th day, (II)
  relative survival rate: 85%
30 μg/kg iv qd × 5, 7th day, Example 5 (I)
  relative survival rate: 90%
30 μg/kg iv qd × 5, 7th day, Example 5 (II)
  relative survival rate: 90%
30 μg/kg iv qd × 5, killed, (I)
  relative survival rate: 80%
30 μg/kg iv qd × 5, killed, (II)
  relative survival rate: 85%
30 μg/kg iv qd × 5, killed, Example 5 (I)
  relative survival rate: 85%
30 μg/kg iv qd × 5, killed, Example 5 (II)
  relative survival rate: 80% and 90%
30 μg/kg iv qd × 7, 1st day, (I)
  relative survival rate: 100%
30 μg/kg iv qd × 7, 1st day, (II)
  relative survival rate: 100%
30 μg/kg iv qd × 7, 2nd day, (I)
  relative survival rate: 100%
30 μg/kg iv qd × 7, 2nd day, (II)
  relative survival rate: 100%
30 μg/kg iv qd × 7, 3rd day, (I)
  relative survival rate: 100%
30 μg/kg iv qd × 7, 4th day, (I)
  relative survival rate: 100%
30 μg/kg iv qd × 7, 5th day, (I)
  relative survival rate: 100%
30 μg/kg iv qd × 7, 6th day, (I)
  relative survival rate: 90%
30 μg/kg iv qd × 7, 7th day, (I)
  relative survival rate: 90%
30 μg/kg iv qd × 7, killed, (I)
  relative survival rate: 85%
30 μg/kg iv qd × 7, killed, (II)
  relative survival rate: 80%
